In test [1] the target is serum-derived protein (Zucker rat). As to the kind of experiment: solid phase capture ELISA of Zucker rat skin perfusate, 30 minutes after perfusion, 1 mM Ca^2+. A general note: ELISA stands for enzyme-linked immunosorbent assay.
The target is the same in test [2]. In words: solid phase capture ELISA of Zucker rat skin perfusate, 2 minutes after perfusion, 1 mM Ca^2+.
The target is the same in test [3]. In words: solid phase capture ELISA of Zucker rat skin perfusate, 2 minutes after perfusion, 10 mM Ca^2+.
Test [4] has the same target. In words: solid phase capture ELISA of Zucker rat skin perfusate, 30 minutes after perfusion, 10 mM Ca^2+.
Test [5] has the same target. In words: solid phase capture ELISA of Zucker rat skin perfusate, 90 minutes after perfusion, 10 mM Ca^2+.
Test [6] shares this target. In words: solid phase capture ELISA of Zucker rat skin perfusate, 60 minutes after perfusion, 10 mM Ca^2+.
For test [7] the target is unchanged. As to the kind of experiment: solid phase capture ELISA of Zucker rat skin perfusate, 90 minutes after perfusion, 1 mM Ca^2+.
Test [8] shares this target. In words: solid phase capture ELISA of Zucker rat skin perfusate, 30 minutes after start of perfusion, 1 mM Ca^2+.

Among the data in US20140219992A1 are uncomplexed protein as a fraction of the starting concentration (fraction of the starting concentration) and percent of uncomplexed protein (of the starting concentration) values, retold here.

Where only a bound is given, the exact number is not on record here.

Chain of wild-type human matrix metalloprotease 1 (hMMP-1), purified and trypsin-activated (P03956 100-469): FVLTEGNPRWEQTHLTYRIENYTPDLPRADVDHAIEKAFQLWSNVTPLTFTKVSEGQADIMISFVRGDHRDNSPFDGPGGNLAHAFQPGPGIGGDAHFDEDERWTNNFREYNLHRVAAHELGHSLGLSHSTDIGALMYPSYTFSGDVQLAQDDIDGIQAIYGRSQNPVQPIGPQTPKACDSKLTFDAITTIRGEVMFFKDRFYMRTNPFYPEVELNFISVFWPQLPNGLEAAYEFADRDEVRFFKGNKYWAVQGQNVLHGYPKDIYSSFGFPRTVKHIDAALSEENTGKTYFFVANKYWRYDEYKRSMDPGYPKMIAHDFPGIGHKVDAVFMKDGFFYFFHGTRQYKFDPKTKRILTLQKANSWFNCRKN

For the substance “MMP-1 mutant GVSK (G159V/S208K), purified and trypsin-activated (from UniProt P03956 100-469) (enzyme)”, the uncomplexed protein as a fraction of the starting concentration (fraction of the starting concentration) in test [1] was < 0.1. In addition, the percent of uncomplexed protein (of the starting concentration) in test [2] was 45%; in test [3], 90%; in test [4], 50%; in test [5] it was 13%; in test [6], 30%.

In the case of “wild-type human matrix metalloprotease 1 (hMMP-1), purified and trypsin-activated (from UniProt P03956 100-469) (enzyme)”, the uncomplexed protein as a fraction of the starting concentration (fraction of the starting concentration) in test [7] came to 0.33; in test [8], 0.5. The percent of uncomplexed protein (of the starting concentration) in test [2] amounted to 90%.
